# Source: patent publication US7521540B2, “CYR61 compositions and methods” (Munin Corporation, priority 1996, dated 2009)
# B1: human Cyr61: Human Cyr61, 381 amino acids, SEQ ID NO:4, expressed in the baculovirus system (protein, listed as Homo sapiens)
# chain: MSSRIARALALVVTLLHLTRLALSTCPAACHCPLEAPKCAPGVGLVRDGCGCCKVCAKQLNEDCSKTQPCDHTKGLECNFGASSTALKGICRAQSEGRPCEYNSRIYQNGESFQPNCQHQCTCIDGAVGCIPLCPQELSLPNLGCPNPRLVKVTGQCCEEWVCDEDSIKDPMEDQDGLLGKELGFDASEVELTRNNELIAVGKGRSLKRLPVFGMEPRILYNPLQGQKCIVQTTSWSQCSKTCGTGISTRVTNDNPECRLVKETRICEVRPCGQPVYSSLKKGKKCSKTKKSPEPVRFTYAGCLSVKKYRPKYCGSCVDGRCCTPQLTRTVKMRFRCEDGETFSKNVMMIQSCKCNYNCPHANEAAFPFYRLFNDIHKFRD
# B2: DM: Cyr61 double mutant with both heparin-binding motifs mutated (SEQ ID NO:30 region) (protein)
# chain: TCPAACHCPLEAPKCAPGVGLVRDGCGCCKVCAKQLNEDCSKTQPCDHTKGLECNFGASSTALKGICRAQSEGRPCEYNSRIYQNGESFQPNCKHQCTCIDGAVGCIPLCPQELSLPNLGCPNPRLVKVSGQCCEEWVCDEDSIKDSLDDQDDLLGLDASEVELTRNNELIAIGKGSSLKRLPVFGTEPRVLFNPLHAHGQKCIVQTTSWSQCSKSCGTGISTRVTNDNPECRLVKETRICEVRPCGQPVYSSSLKAGAACSATAKSPEPVRFTYAGCSSVAAYAPKYCGCVDGRCCTPLQTRTVKMRFRCEDGEMFSKNVMMIQSCKCNYNCPHPNEASFRLYSLFNDIHKFRD
# B3: CTGF: Human ortholog of Fisp12, SEQ ID NO:8 (protein, listed as Homo sapiens)
# chain: MTAASMGPVRVAFVVLLALCSRPAVGQNCSGPCRCPDEPAPRCPAGVSLVLDGCGCCRVCAKQLGELCTERDPCDPHKGLFCDFGSPANRKIGVCTAKDGAPCIFGGTVYRSGESFQSSCKYQCTCLDGAVGCMPLCSMDVRLPSPDCPFPRRVKLPGKCCEEWVCDEPKDQTVVGPALAAYRLEDTFGPDPTMIRANCLVQTTEWSACSKTCGMGISTRVTNDNASCRLEKQSRLCMVRPCEADLEENIKKGKKCIRTPKISKPIKFELSGCTSMKTYRAKFCGVCTDGRCCTPHRTTTLPVEFKCPDGEVMKKNMMFIKTCACHYNCPGDNDIFESLYYRKMYGDMA
# Assays:
# [1] = Heparin binding assay (salt elution from heparin-Sepharose/agarose)
# [2] = system: HUVE cells; test: HUVE cell adhesion to hCyr61-coated plates; type: cell-based, human; conditions: serum-free conditions
# Method: Immunological plates (96-well ProBind assay plates, Falcon) were coated with 0.1-30 μg/ml hCyr61, fibronectin (Gibco BRL) or vitronectin (Gibco BRL) in phosphate-buffered saline (PBS) containing 0.1% protease-free BSA (Sigma) for 16 hrs at 4° C. The wells were blocked with 1% BSA in PBS for 1 hr at room temperature and washed with PBS. […] In some experiments, fbs was added to 5-10%. Also, in experiments involving vitronectin-coateci plates, endogenous vitronectin was removed from fbs by immunoaffinity chromatography using bovine polyclonal anti-vitronectin antibodies (Gibco). Norris et al., J. Cell Sci. 95:255-262 (1990). Cells were plated at 10^4 cells/well. After 2 hours, cells were fixed with 4% paraformaldehyde, stained with methylene blue and quantified as described. Oliver et al., J. Cell Sci. 92:513-518 (1989).
# The ability of HUVE cells to adhere to hCyr61-coated plates in the presence of mock-immunodepleted fbs and serum immunodepleted with anti-bovine vitronectin antibodies were compared. […] The addition of vitronectin (30 μg/ml) to vitronectin-immunodepleted serum restored the ability of HUVE cells to adhere and spread on hCyr61-coated plates to the same level observed when whole serum was used in the cell attachment assay. […]
# Additionally, HUVE cell attachment and spreading in the presence of an increasing quantity of vitronectin was examined. […]
# [3] = system: 1064SK human skin fibroblasts; test: Human skin fibroblast migration; type: cell-based; conditions: 1064SK cells
# [4] = system: 1064SK primary human foreskin fibroblasts; test: Fibroblast adhesion assay (methylene blue, A620); type: cell-based; conditions: protein coated on wells
# Method: The ability of Cyr61 to mediate cell adhesion in normal fibroblasts was investigated. Microtiter wells were coated with purified recombinant Cyr61 protein, and 1064SK primary human foreskin fibroblasts were allowed to adhere under serum-free conditions. […] 50 μl cell suspensions were plated on microtiter wells coated with varying concentrations (0.5-5.0 μg/ml) of Cyr61 protein. After incubation at 37° C. for 30 minutes, adherent cells were fixed and stained with methylene blue.
# In another experiment, microtiter wells were coated with either BSA, Cyr61 (2 μg/ml), or vitronectin (VN; 0.5 μg/ml) and blocked with affinity-purified anti-Cyr61 antibodies for one hour at 37° C. before 1064SK cells were plated.
# The effects of divalent cations in cell adhesion to Cyr61 was also investigated. […] Data are means from triplicate determinations. […] Inhibition by Ca^2+ is characteristic of adhesion through some members of the β1 family of integrins, including receptors that bind type I collagen, laminin, and vitronectin (integrins α2β1, α6β1, and αVβ1) in fibroblasts, as well as the lymphocyte-specific integrin αLβ2.
# The effects of RGD peptides on Cyr61-mediated fibroblast binding was tested by plating cells in wells coated with Cyr61 (2 μg/ml). Type I collagen (2 μg/ml) or vitronectin (0.5 μg/ml), 2 mM GRGDSP or GRGESP peptide was then added.
# Cells were also pre-incubated with 40 μg/ml monoclonal antibodies against the integrin α5 or the integrin αV subunits at room temperature for 30 minutes, then plated on wells coated with Cyr61 (2 μg/ml), vitronectin (0.5 μg/ml) or fibronectin (FN, 1 μg/ml). […] The data are means, representative of three experiments.
# The 1064 SK cells were also analyzed using the monoclonal antibody JBIA, which binds the β1 integrin subunit. Cells were pre-incubated with the antibody (50 μg/ml) before plating on microtiter wells coated with Cyr61 (2 μg/ml), Type I collagen (2 μg/ml), or vitronectin (0.5 μg/ml). […] Data are means, representative of three experiments.
# To identify the specific β1 integrin that mediates fibroblast adhesion to Cyr61, the inhibitory effects of function-blocking monoclonal antibodies were tested against various integrin α subunits. […] The data are means, representative of at least three experiments.
# [5] = system: HUVE cells; test: HUVE cell adhesion to wild-type and double-mutant Cyr61; type: cell-based, human
# Method: Immobilized cells were stained with methylene blue and absorbances (A620) were recorded. relative binding capacities (binding of cells not exposed to a pre-incubation compound defined as 100%) are presented in Table III.
# [6] = system: primary human foreskin fibroblasts; test: Cyr61-regulated gene expression (multi-gene blot, Northern); type: cell-based
# Method: Purified, soluble, recombinant Cyr61 protein was added to cultures of primary human foreskin fibroblasts for 24 hours. From these cells, mRNA was isolated for preparation of probes to hybridize to a multi-gene blot (Clontech Atlas Human Array 1.2 cat no. 7850-1) containing about 650 genes. The levels of expression of these genes in Cyr61-treated cells were compared to that of control cells. […] These findings have been confirmed by Northern blot analysis showing increases or decreases of the mRNAs in question in Cyr61-treated cells. A time course of expression changes has been established. In particular, by 6 hours after its addition, Cyr61 has induced expression of VEGF-A mRNA and the induction is still evident at 12 and 24 hours post-addition. Also at 12 and 24 hours post-addition, Cyr61 has induced expression of VEGF-A polypeptide. With respect to VEGF-C, induction of mRNA is clearly evident 12 hours after addition of Cyr61 and the induction persists at least through 24 hours post-addition. Cyr61 is expected to induce the expression of VEGF-C polypeptide with similar kinetics.
# [7] = system: cornea; test: Cornea assay for angiogenic factors; type: in vivo, rat; conditions: rat, in vivo
# From the text: Another assay for modulators of angiogenesis is an in vivo assay for assessing the effect of a suspected modulator in the presence of an ECM signaling molecule-related biomaterial, such as Cyr61, on angiogenesis is the Cornea Assay. The Cornea Assay takes advantage of the absence of blood vessels in the cornea, which in the presence of an angiogenic factor, results in the detectable development of capillaries extending from the sclera into the cornea. Friedlander et al., Science 270:1500-1502 (1995). This ingrowth of new blood vessels from the sclera can be microscopically monitored. Further, the visually determined rate of migration can be used to assess changes in the rate of angiogenesis. These cornea assays may be performed using a wide variety of animal models. Preferably, the cornea assays are performed using rats. By way of example, an assay for suspected modulators of Cyr61 using this assay is disclosed. To perform this assay, Cyr61 is initially titrated using primary capillary endothelial cells to determine effective concentrations of Cyr61. Subsequently, Cyr61, in the presence or absence of a suspected modulator, is surgically implanted into the corneas of mammalian laboratory animals, e.g., rabbits or rats. In a preferred embodiment, Cyr61 (or Cyr61 and a suspected modulator) is embedded in a biocompatible matrix, using matrix materials and techniques that are standard in the art. Subsequently, eyes containing implants are visually observed for growth of the readily visible blood vessels within the eye. Control implantations may consist of physiologically balanced buffers embedded in the same type of matrix and implanted into eyes of the same type of laboratory animal receiving the Cyr61-containing implants.
# Although rats of various sizes can be used in the cornea assay, a preferred size for the rats is 150-200 g/animal. Anesthesia is induced with Methoxyflurane and is maintained for 40-60 minutes with sodium pentobarbital (50 mg/kg, delivered intraperitoneally). The eyes are gently opened and secured in place by clamping the upper eyelid with a non-traumatic hemostat. Two drops of sterile proparacaine hydrochloride (0.5%) are then placed on each eye as to effect local anesthesia. Using a suitable surgical blade such as a No. 11 Bard Parker blade, an approximately 1.5 mm incision is made approximately 1 mm from the center of the cornea. […] Once the cornea pocket is made, the spatula is removed and the distance between the limbus and base of the pocket is measured to make sure the separation is at least about 1 mm. […]
# Following surgery, animals are examined daily for seven days with the aid of a stereomicroscope to check for inflammation and responses. […] During this seven day period, animals are monitored for implant position and corneal exudate. […]
# [8] = system: NIH 3T3 cells; conditions: U.S. Pat. No. 5,408,040; cited from earlier work
Molecule,heparin binding [1],HUVE cell attachment and spreading [2],migration of human fibroblasts [3],NaCl concentration of elution from heparin-Sepharose/agarose ([1]; increasing salt concentrations),support of 1064SK fibroblast adhesion [4],HUVEC binding [5],"induction of VEGF, MMP1, MMP3 etc. [6]",angiogenic effect in cornea assay [7],migration of NIH 3T3 and BASM cells (reported) [8]
B1,quantitatively bound to heparin-agarose,mediated cell attachment but not spreading,induced migration of the human fibroblast cells,,,,,,
B2,severely deficient in heparin binding,,,up to 0.25 M NaCl,unable to support 1064SK fibroblast adhesion at any concentration tested,still mediated HUVEC binding,do not induce the expression of the above-referenced genes,,
B3,,,,,,,,confirm the effect of angiogenic factors,reported to induce the migration
